# Patent US20180044393A1 (INSERM INSTITUT NATIONAL DE LA SANT ET DE LA RECHERCHE M …, published 2018)
# T1: Orexin receptor-1 (human OX1R, wild type) stably expressed in CHO-S cells (human, UniProt O43613 1-425)
# T1 sequence: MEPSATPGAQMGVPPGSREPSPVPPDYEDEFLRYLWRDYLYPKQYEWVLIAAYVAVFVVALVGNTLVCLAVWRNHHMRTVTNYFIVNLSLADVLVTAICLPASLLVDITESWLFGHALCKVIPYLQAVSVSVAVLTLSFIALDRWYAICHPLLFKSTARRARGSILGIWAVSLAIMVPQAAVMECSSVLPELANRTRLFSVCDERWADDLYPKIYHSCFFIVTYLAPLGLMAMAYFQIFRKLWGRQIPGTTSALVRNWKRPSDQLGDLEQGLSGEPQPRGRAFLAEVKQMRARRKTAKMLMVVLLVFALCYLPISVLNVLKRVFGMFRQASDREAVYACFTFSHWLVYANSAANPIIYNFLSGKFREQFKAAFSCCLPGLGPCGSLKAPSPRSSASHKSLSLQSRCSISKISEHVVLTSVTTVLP
# B1: OxB 7-28 (peptide)
# peptide: LQGRLQRLLQASGNHAAGILTM
# notes: synthetic deletion mutant of OxB; also called deletion of the first six residues of OxB
# Experiments:
# [1] = target: T1, Orexin receptor-1 (human OX1R, wild …); assay: cell-based or functional assay
# [2] = target: T1, Orexin receptor-1 (human OX1R, wild …); assay: competitive inhibition of 125I-OxA binding on CHO-S cells expressing human OX1R
# Description: CHO—S cells expressing recombinant native or mutated OX1R were grown as previously described (El Firar et al., 2009) and maintained at 37° C. in a humidified 5% CO₂/air incubator. ¹²⁵I-orexia-A (74 TBq/mmol) was prepared as previously described (El Firar et al., 2009). […] Free peptides were removed by 2 cell washing cycles with PBS. […] Data were analyzed using the GraphPad software (http://www.graphpad.com).
binder,measurement,setting,value
B1,Apoptosis induction EC50,[1],2180 nM
same,IP3 production EC50,[1],1510 nM
same,IC50,[2],388 nM
